Data as given in patent US20240108738A1 (Bicycle, published 2024).
Numbered stars: 1 amine (or outer) side, 2 acyl side, 3 side chain; on linkers, the order of the positions; unused ones are H or OH. Bridge positions count the residues as written; N and C are the ends. Square brackets hold non-standard residues; d marks the D form. Ends that are not written are not given here. * marks the point of attachment. TATA = O=C(CC[*:1])N1CN(C(=O)CC[*:2])CN(C(=O)CC[*:3])C1; Tyr(2-F) = N[C@@H](Cc1ccc(O)cc1F)C(=O)O; Dopa = N[C@@H](Cc1ccc(O)c(O)c1)C(=O)O; 4Pal = N[C@@H](Cc1ccncc1)C(=O)O; dCha = N[C@H](CC1CCCCC1)C(=O)O; Cba = N[C@@H](CC1CCC1)C(=O)O; Pen = CC(C)(S)[C@H](N)C(=O)O; dNle = CCCC[C@@H](N)C(=O)O; dNva = CCC[C@@H](N)C(=O)O; NMeA = CN[C@@H](C)C(=O)O; Pent4ynoyl = C#CCCC(=O)*

B1: BCY18440 (peptide)
peptide: Ac-CY[Cba][NMeA]DYLC[dA]DEYC-NH2
modifications: linker 1-8-13 via TATA
SMILES: CC(=O)N[C@H]1CSCCC(=O)N2CN3CN(C2)C(=O)CCSC[C@H](NC(=O)[C@H](CC(C)C)NC(=O)[C@H](Cc2ccc(O)cc2)NC(=O)[C@H](CC(=O)O)NC(=O)[C@H](C)N(C)C(=O)[C@H](CC2CCC2)NC(=O)[C@H](Cc2ccc(O)cc2)NC1=O)C(=O)N[C@H](C)C(=O)N[C@@H](CC(=O)O)C(=O)N[C@@H](CCC(=O)O)C(=O)N[C@@H](Cc1ccc(O)cc1)C(=O)N[C@H](C(N)=O)CSCCC3=O
notes: scaffold TATA
B2: BCY19685 (peptide)
peptide: Ac-CY[Cba]PDYLC[dNle]DEYC-NH2
modifications: linker 1-8-13 via TATA
SMILES: CCCC[C@H]1NC(=O)[C@@H]2CSCCC(=O)N3CN(CN(C3)C(=O)CCSC[C@H](NC(C)=O)C(=O)N[C@@H](Cc3ccc(O)cc3)C(=O)N[C@@H](CC3CCC3)C(=O)N3CCC[C@H]3C(=O)N[C@@H](CC(=O)O)C(=O)N[C@@H](Cc3ccc(O)cc3)C(=O)N[C@@H](CC(C)C)C(=O)N2)C(=O)CCSC[C@@H](C(N)=O)NC(=O)[C@H](Cc2ccc(O)cc2)NC(=O)[C@H](CCC(=O)O)NC(=O)[C@H](CC(=O)O)NC1=O
notes: scaffold TATA
B3: BCY19686 (peptide)
peptide: Ac-CY[Cba]PD[Dopa]LC[dA]DEYC-NH2
modifications: linker 1-8-13 via TATA
SMILES: CC(=O)N[C@H]1CSCCC(=O)N2CN3CN(C2)C(=O)CCSC[C@H](NC(=O)[C@H](CC(C)C)NC(=O)[C@H](Cc2ccc(O)c(O)c2)NC(=O)[C@H](CC(=O)O)NC(=O)[C@@H]2CCCN2C(=O)[C@H](CC2CCC2)NC(=O)[C@H](Cc2ccc(O)cc2)NC1=O)C(=O)N[C@H](C)C(=O)N[C@@H](CC(=O)O)C(=O)N[C@@H](CCC(=O)O)C(=O)N[C@@H](Cc1ccc(O)cc1)C(=O)N[C@H](C(N)=O)CSCCC3=O
notes: scaffold TATA
B4: BCY19683 (peptide)
peptide: Ac-CY[Cba]PDYLC[dCha]DEYC-NH2
modifications: linker 1-8-13 via TATA
SMILES: CC(=O)N[C@H]1CSCCC(=O)N2CN3CN(C2)C(=O)CCSC[C@H](NC(=O)[C@H](CC(C)C)NC(=O)[C@H](Cc2ccc(O)cc2)NC(=O)[C@H](CC(=O)O)NC(=O)[C@@H]2CCCN2C(=O)[C@H](CC2CCC2)NC(=O)[C@H](Cc2ccc(O)cc2)NC1=O)C(=O)N[C@H](CC1CCCCC1)C(=O)N[C@@H](CC(=O)O)C(=O)N[C@@H](CCC(=O)O)C(=O)N[C@@H](Cc1ccc(O)cc1)C(=O)N[C@H](C(N)=O)CSCCC3=O
notes: scaffold TATA
B5: BCY18435 (peptide)
peptide: Ac-CN[Cba]PDYLC[dA]DEYC-NH2
modifications: linker 1-8-13 via TATA
SMILES: CC(=O)N[C@H]1CSCCC(=O)N2CN3CN(C2)C(=O)CCSC[C@H](NC(=O)[C@H](CC(C)C)NC(=O)[C@H](Cc2ccc(O)cc2)NC(=O)[C@H](CC(=O)O)NC(=O)[C@@H]2CCCN2C(=O)[C@H](CC2CCC2)NC(=O)[C@H](CC(N)=O)NC1=O)C(=O)N[C@H](C)C(=O)N[C@@H](CC(=O)O)C(=O)N[C@@H](CCC(=O)O)C(=O)N[C@@H](Cc1ccc(O)cc1)C(=O)N[C@H](C(N)=O)CSCCC3=O
notes: scaffold TATA
B6: BCY18441 (peptide)
peptide: Ac-CY[Cba]PNYLC[dA]DEYC-NH2
modifications: linker 1-8-13 via TATA
SMILES: CC(=O)N[C@H]1CSCCC(=O)N2CN3CN(C2)C(=O)CCSC[C@H](NC(=O)[C@H](CC(C)C)NC(=O)[C@H](Cc2ccc(O)cc2)NC(=O)[C@H](CC(N)=O)NC(=O)[C@@H]2CCCN2C(=O)[C@H](CC2CCC2)NC(=O)[C@H](Cc2ccc(O)cc2)NC1=O)C(=O)N[C@H](C)C(=O)N[C@@H](CC(=O)O)C(=O)N[C@@H](CCC(=O)O)C(=O)N[C@@H](Cc1ccc(O)cc1)C(=O)N[C@H](C(N)=O)CSCCC3=O
notes: scaffold TATA
B7: BCY18442 (peptide)
peptide: Ac-CY[Cba]PQYLC[dA]DEYC-NH2
modifications: linker 1-8-13 via TATA
SMILES: CC(=O)N[C@H]1CSCCC(=O)N2CN3CN(C2)C(=O)CCSC[C@H](NC(=O)[C@H](CC(C)C)NC(=O)[C@H](Cc2ccc(O)cc2)NC(=O)[C@H](CCC(N)=O)NC(=O)[C@@H]2CCCN2C(=O)[C@H](CC2CCC2)NC(=O)[C@H](Cc2ccc(O)cc2)NC1=O)C(=O)N[C@H](C)C(=O)N[C@@H](CC(=O)O)C(=O)N[C@@H](CCC(=O)O)C(=O)N[C@@H](Cc1ccc(O)cc1)C(=O)N[C@H](C(N)=O)CSCCC3=O
notes: scaffold TATA
B8: BCY19689 (peptide)
peptide: Ac-[Pen]Y[Cba]PDYLC[dA]DEYC-NH2
modifications: linker 1-8-13 via TATA
SMILES: CC(=O)N[C@@H]1C(=O)N[C@@H](Cc2ccc(O)cc2)C(=O)N[C@@H](CC2CCC2)C(=O)N2CCC[C@H]2C(=O)N[C@@H](CC(=O)O)C(=O)N[C@@H](Cc2ccc(O)cc2)C(=O)N[C@@H](CC(C)C)C(=O)N[C@H]2CSCCC(=O)N3CN(CN(C3)C(=O)CCSC1(C)C)C(=O)CCSC[C@@H](C(N)=O)NC(=O)[C@H](Cc1ccc(O)cc1)NC(=O)[C@H](CCC(=O)O)NC(=O)[C@H](CC(=O)O)NC(=O)[C@@H](C)NC2=O
notes: scaffold TATA
B9: BCY19684 (peptide)
peptide: Ac-CY[Cba]PDYLC[dK](Pent4ynoyl)DEYC-NH2
modifications: linker 1-8-13 via TATA
SMILES: C#CCCC(=O)NCCCC[C@H]1NC(=O)[C@@H]2CSCCC(=O)N3CN(CN(C3)C(=O)CCSC[C@H](NC(C)=O)C(=O)N[C@@H](Cc3ccc(O)cc3)C(=O)N[C@@H](CC3CCC3)C(=O)N3CCC[C@H]3C(=O)N[C@@H](CC(=O)O)C(=O)N[C@@H](Cc3ccc(O)cc3)C(=O)N[C@@H](CC(C)C)C(=O)N2)C(=O)CCSC[C@@H](C(N)=O)NC(=O)[C@H](Cc2ccc(O)cc2)NC(=O)[C@H](CCC(=O)O)NC(=O)[C@H](CC(=O)O)NC1=O
notes: scaffold TATA
B10: BCY18437 (peptide)
peptide: Ac-C[4Pal][Cba]PDYLC[dA]DEYC-NH2
modifications: linker 1-8-13 via TATA
SMILES: CC(=O)N[C@H]1CSCCC(=O)N2CN3CN(C2)C(=O)CCSC[C@H](NC(=O)[C@H](CC(C)C)NC(=O)[C@H](Cc2ccc(O)cc2)NC(=O)[C@H](CC(=O)O)NC(=O)[C@@H]2CCCN2C(=O)[C@H](CC2CCC2)NC(=O)[C@H](Cc2ccncc2)NC1=O)C(=O)N[C@H](C)C(=O)N[C@@H](CC(=O)O)C(=O)N[C@@H](CCC(=O)O)C(=O)N[C@@H](Cc1ccc(O)cc1)C(=O)N[C@H](C(N)=O)CSCCC3=O
notes: scaffold TATA
B11: BCY18444 (peptide)
peptide: Ac-CY[Cba]PDYLC[dNva]DEYC-NH2
modifications: linker 1-8-13 via TATA
SMILES: CCC[C@H]1NC(=O)[C@@H]2CSCCC(=O)N3CN(CN(C3)C(=O)CCSC[C@H](NC(C)=O)C(=O)N[C@@H](Cc3ccc(O)cc3)C(=O)N[C@@H](CC3CCC3)C(=O)N3CCC[C@H]3C(=O)N[C@@H](CC(=O)O)C(=O)N[C@@H](Cc3ccc(O)cc3)C(=O)N[C@@H](CC(C)C)C(=O)N2)C(=O)CCSC[C@@H](C(N)=O)NC(=O)[C@H](Cc2ccc(O)cc2)NC(=O)[C@H](CCC(=O)O)NC(=O)[C@H](CC(=O)O)NC1=O
notes: scaffold TATA

Molecular target: T1, Human NKp46 Fc tag (Acro Biosystems, NC1-H5257) (human, UniProt O76036 22-255)
T1 construct: bought; also called Fc-tagged human NKp46
T1 sequence (O76036 22-255 limits assumed): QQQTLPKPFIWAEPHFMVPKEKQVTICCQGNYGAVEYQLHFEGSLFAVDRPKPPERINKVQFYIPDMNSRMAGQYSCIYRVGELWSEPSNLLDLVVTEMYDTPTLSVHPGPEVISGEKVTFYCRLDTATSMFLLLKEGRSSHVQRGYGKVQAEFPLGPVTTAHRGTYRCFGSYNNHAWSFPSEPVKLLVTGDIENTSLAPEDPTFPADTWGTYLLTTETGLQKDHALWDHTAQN
Assay: SPR Method 1 and/or 2
Method: The SPR analysis was run at 25° C. and a flow rate of 50 μl/min with 60 seconds association and 200-400 seconds dissociation time. Data were corrected for DMSO excluded volume effects. All data were double-referenced for blank injections and reference surface using standard processing procedures and data processing and kinetic fitting were performed using Scrubber software, version 2.0c (BioLogic Software). Data were fitted using simple 1:1 binding model allowing for mass transport effects where appropriate.
For analysis of peptide binding, a Biacore 8k+ instrument was used with a CM5 chip (Cytiva). All experiments were carried out at 25° C. Anti-human IgG (Fc) antibody (Cytiva) was immobilized on all flow cells by standard amine coupling chemistry. The running buffer was HBS-N(Cytiva, 10 mM HEPES, 0.15 M NaCl, pH 7.4) and the flow rate was 10 μL/min. The carboxymethyl dextran surface was activated with a 1:1 ratio of 0.4 M 1-ethyl-3-(3-dimethylaminopropyl) carbodiimide hydrochloride (EDC)/0.1 M N-hydroxy succinimide (NHS) (Cytiva) for 420s. […] Residual activated groups were blocked with a 420 s injection of 1 M ethanolamine (pH 8.5). The final surface density was 3000-5000 RU. Fc-tagged human NKp46 was diluted to 0.1 μM in HBS-N and was captured on flow cell 2 only of the sensor chip at a flow rate of 10 μL/min to 500-1000 RU. The buffer was then changed to PBS-P+(Cytiva) supplemented with 2% DMSO. […] The flow rate was 50 μL/min with 60 s association and 400 s dissociation. Data were corrected for DMSO volume exclusion effects. All data were double-referenced against blank injections and reference surface response using standard processing procedures. Data processing and kinetic fitting was performed using Biacore Insight Evaluation Software with Extended Screening and Characterization Extension (Cytiva). Data were fitted using steady state affinity 1:1 binding model to determine KD. Data were fitted using kinetic 1:1 binding model to determine kinetic constants where appropriate.

Kd [nM]	Binder
149	B1
10	B2
19	Ac-CY[Cba]PDYL[Pen][dA]DEYC-NH2 (linker 1-8-13 via TATA, scaffold TATA) [BCY19690]
44	B3
22	ACYLPDYLCGDEYCA-NH2 (linker 2-9-14 via TATA; also: scaffold: TATA, TATB or TBMT, scaffold TATA) [BCY18470]
28	Ac-CY[Cba]PD[Tyr(2-F)]LC[dA]DEYC-NH2 (linker 1-8-13 via TATA, scaffold TATA) [BCY19687]
10	B4
91	B5
7.7	B6
7.1	B7
9	Ac-CY[Cba]PDYLC[dF]DEYC-NH2 (linker 1-8-13 via TATA, scaffold TATA) [BCY19682]
6.3	Ac-CY[Cba]PDYLC[dV]DEYC-NH2 (linker 1-8-13 via TATA, scaffold TATA) [BCY18443]
16	B8
17	Ac-[dC]Y[Cba]PDYLC[dA]DEYC-NH2 (linker 1-8-13 via TATA, scaffold TATA) [BCY19693]
9.4	B9
47	B10
3.9	B11
